B1: anti-DLL3 trispecific protein, DLL3 binder 3D010 (protein, part only; not given: CD3 binder and albumin binder, part only)
chain, part: EVQLVESGGGLVQPGGSLTLSCAASGSSKSFLSMAWYRQAPGKKRELVAGISADGSTSYIDSVKGRFTISRDNAKNSVYLQMNSLRAEDTAVYYCYAYRWTTRYTYWGQGTLVTVSSGGGGSGGGSGGGGSGGGSHHHHHH
B2: anti-DLL3 trispecific protein, DLL3 binder 3D08 (protein, part only; not given: anti-CD3 fragment and anti-albumin sdAb, part only)
chain, part: B1 chain, part with K29V, S30R, D54N, S58D, T102N
B3: anti-DLL3 trispecific protein, DLL3 binder 4H06 (protein, part only; not given: anti-CD3 and anti-albumin domains, part only)
chain, part: B1 chain, part with S27R, K29V, S58I
B4: anti-DLL3 trispecific protein, DLL3 binder 3G011 (protein, part only; not given: anti-CD3 fragment and anti-albumin sdAb, part only)
chain, part: B1 chain, part with S28R, K29V, S58G, T101A
B5: anti-DLL3 trispecific protein, DLL3 binder 3B06 (protein, part only; not given: anti-CD3 fragment and anti-albumin sdAb, part only)
chain, part: B1 chain, part with S27K, K29V, A53K, S58D
B6: anti-DLL3 trispecific protein, DLL3 binder 4A08 (protein, part only; not given: CD3 binder and albumin binder, part only)
chain, part: B1 chain, part with K29V, S58N, T101R
B7: anti-DLL3 trispecific protein, DLL3 binder 4H09 (protein, part only; not given: anti-CD3 and anti-albumin domains, part only)
chain, part: B1 chain, part with K29V, F31K, S58D, I60R, T102Y
B8: anti-DLL3 trispecific protein, DLL3 binder 3A06 (protein, part only; not given: anti-CD3 fragment and anti-albumin domain, part only)
chain, part: B1 chain, part with S21R, S28K, K29V, S58D, I60V, T102R
B9: anti-DLL3 trispecific protein, DLL3 binder 4G02 (protein, part only; not given: CD3 binder and albumin binder, part only)
chain, part: B1 chain, part with K29V, S30K, A53R, S58D, Y104H
B10: anti-DLL3 trispecific protein, DLL3 binder 3B09 (protein, part only; not given: CD3 binder and albumin binder, part only)
chain, part: B1 chain, part with S28H, K29V, D54N, S58D, T105A
B11: anti-DLL3 trispecific protein, DLL3 binder 3E03 (protein, part only; not given: CD3 binder and albumin binder, part only)
chain, part: B1 chain, part with K29V, S30R, A53G, S58D, T101M
B12: anti-DLL3 trispecific protein, DLL3 binder 4H07 (protein, part only; not given: anti-CD3 fragment and anti-albumin sdAb, part only)
chain, part: B1 chain, part with S27R, K29V, D54N, S58D, T101S
B13: anti-DLL3 trispecific protein, DLL3 binder 4G07 (protein, part only; not given: anti-CD3 fragment and anti-albumin domain, part only)
chain, part: B1 chain, part with K29V, M34V, D54N, S58D, T102N
B14: anti-DLL3 trispecific protein, DLL3 binder 4C08 (protein, part only; not given: CD3 binder and albumin binder, part only)
chain, part: B1 chain, part with A23V, S28Q, K29V, S58D, I60F, T102R
B15: anti-DLL3 trispecific protein, DLL3 binder 4B05 (protein, part only; not given: anti-CD3 fragment and anti-albumin domain, part only)
chain, part: B1 chain, part with S28R, K29V, S56H, S58D, Y106H
B16: anti-DLL3 trispecific protein, DLL3 binder 3D05 (protein, part only; not given: CD3 binder and albumin binder, part only)
chain, part: B1 chain, part with K29V, S30R, S58D, T102R
B17: anti-DLL3 trispecific protein, DLL3 binder 4H01 (protein, part only; not given: CD3 binder and albumin binder, part only)
chain, part: B1 chain, part with K29V, D54N, S58D, I60Y, T101R
B18: anti-DLL3 trispecific protein, DLL3 binder 3G02 (protein, part only; not given: CD3 binder and albumin binder, part only)
chain, part: B1 chain, part with K29V, S56R, S58D, T101R
B19: anti-DLL3 trispecific protein, DLL3 binder 4F02 (protein, part only; not given: anti-CD3 fragment and anti-albumin domain, part only)
chain, part: B1 chain, part with S28T, K29V, A53H, S58D
B20: anti-DLL3 trispecific protein, DLL3 binder 4B06 (protein, part only; not given: anti-CD3 fragment and anti-albumin domain, part only)
chain, part: B1 chain, part with S28R, K29V, S58D, I60F, T102R
B21: anti-DLL3 trispecific protein, DLL3 binder 3A01 (protein, part only; not given: anti-CD3 fragment and anti-albumin sdAb, part only)
chain, part: B1 chain, part with K29V, S30K, S58D, T102R
B22: anti-DLL3 trispecific protein, DLL3 binder 3C01 (protein, part only; not given: CD3 binder and albumin binder, part only)
chain, part: B1 chain, part with K29V, S30R, D54H, S58D, T101S
B23: anti-DLL3 trispecific protein, DLL3 binder 3B04 (protein, part only; not given: CD3 binder and albumin binder, part only)
chain, part: B1 chain, part with S28N, K29V, D54R, S58D, R99H
B24: anti-DLL3 trispecific protein, DLL3 binder 3E01 (protein, part only; not given: anti-CD3 fragment and anti-albumin sdAb, part only)
chain, part: B1 chain, part with K29V, S30K, S58M, T101H
B25: anti-DLL3 trispecific protein, DLL3 binder 3F08 (protein, part only; not given: CD3 fragment and albumin sdAb, part only)
chain, part: B1 chain, part with S28R, K29V, S58L, T101H
B26: anti-DLL3 trispecific protein, DLL3 binder 3A05 (protein, part only; not given: anti-CD3 fragment and anti-albumin domain, part only)
chain, part: B1 chain, part with K29V, A53E, D54A, S58D, T101R
B27: anti-DLL3 trispecific protein, DLL3 binder 3H09 (protein, part only; not given: anti-CD3 fragment and anti-albumin domain, part only)
chain, part: B1 chain, part with G26K, K29V, S58D, Y104A
B28: anti-DLL3 trispecific protein, DLL3 binder 4G03 (protein, part only; not given: CD3 binder and albumin binder, part only)
chain, part: B1 chain, part with K29V, S30K, S58D, D61H, T102R
B29: anti-DLL3 trispecific protein, DLL3 binder 1G05 (protein, part only; not given: anti-CD3 fragment and anti-albumin sdAb, part only)
chain, part: EVQLVESGGGLVQPGGSLTLSCVASGSTSSINAIGWYRRAPGKQRELVAGISSDGSKYYADSVKGRFTISRDNAKNSVYLQMNSLRAEDTAVYYCYYFRTVTGSSMRYWGQGTLVTVSSGGGGSGGGSGGGGSGGGSHHHHHH
B30: anti-DLL3 trispecific protein, DLL3 binder 1H08 (protein, part only; not given: CD3 binder and albumin binder, part only)
chain, part: B29 chain, part with S29F, I34M, Y58V, Y59L, T100L, T102S
B31: anti-DLL3 trispecific protein, DLL3 binder 2E08 (protein, part only; not given: anti-CD3 fragment and anti-albumin sdAb, part only)
chain, part: B29 chain, part with T28R, I34M, S53A, Y58V, V101Q, T102S
B32: anti-DLL3 trispecific protein, DLL3 binder 2F08 (protein, part only; not given: anti-CD3 fragment and anti-albumin domain, part only)
chain, part: B29 chain, part with T28K, I34M, V48P, D54N, S56T, Y58V, V63A, G65V, T102L, S104T
B33: anti-DLL3 trispecific protein, DLL3 binder 2H08 (protein, part only; not given: anti-CD3 fragment and anti-albumin domain, part only)
chain, part: B29 chain, part with I34M, V48A, S53K, Y58V, V63A, T102S, M106S

This note sets out measurements from patent publication US20200095340A1.

Residue numbers refer to the chain shown, from its start.

For orientation: Kd means the constant that tells how readily two partners part at equilibrium.

Sequence of biotinylated human DLL3 protein expressed as a human IgG1 fusion protein (human) (Q9NYJ7 27-492): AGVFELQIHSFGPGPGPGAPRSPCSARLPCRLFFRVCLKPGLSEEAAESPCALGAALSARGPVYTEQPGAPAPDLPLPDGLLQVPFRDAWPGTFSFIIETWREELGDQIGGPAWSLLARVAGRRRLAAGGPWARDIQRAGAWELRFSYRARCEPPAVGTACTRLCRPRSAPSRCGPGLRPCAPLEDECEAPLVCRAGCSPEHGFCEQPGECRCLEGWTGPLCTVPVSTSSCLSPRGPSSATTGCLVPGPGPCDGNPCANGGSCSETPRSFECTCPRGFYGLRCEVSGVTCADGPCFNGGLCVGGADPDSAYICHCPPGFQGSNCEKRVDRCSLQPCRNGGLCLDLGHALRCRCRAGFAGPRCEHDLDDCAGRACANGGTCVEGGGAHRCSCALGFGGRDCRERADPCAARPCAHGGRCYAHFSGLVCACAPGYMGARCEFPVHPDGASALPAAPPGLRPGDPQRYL

The experiment has as its target biotinylated human DLL3 protein expressed as a human IgG1 fusion protein (human) (UniProt Q9NYJ7). The experiment can be described thus: Octet, biotinylated human DLL3-IgG1 fusion on streptavidin tips, single 50 nM, conditioned medium (relative KD). On the technique in general: In BLI a coated tip is dipped into the sample, and binding shifts an interference pattern.
Consider B1, for which the dissociation constant Kd came out at 14 nM.
In the case of B2, the Kd amounted to 17 nM.
With B3, the equilibrium dissociation constant (Kd) turned out to be 18 nM.
Then B4, with 17 nM.
In the case of B5 it was 15 nM; in that of B6, 24 nM; in that of B7, 16 nM.
Then B8, with 16 nM; and B9, with 15 nM.
B10 had a Kd of 20 nM.
Then B11, with 20 nM.
In the case of B12 it was 16 nM.
In the case of B13 it was 18 nM; in that of B14, 16 nM; in that of B15, 18 nM.
Molecule B16 had a Kd of 16 nM.
In the case of B17 it was 21 nM; in that of B18, 20 nM.
Then B19, with 15 nM; and B20, with 16 nM; and B21, with 16 nM.
Then B22, with 14 nM.
Regarding B23, the equilibrium dissociation constant (Kd) was determined as 24 nM.
As for B24, the Kd was 16 nM.
Then B25, with 14 nM.
In turn, B26 displayed an equilibrium dissociation constant (Kd) of 15 nM.
In the case of B27 it was 14 nM.
Then B28, with 20 nM.
Turning to B29, the equilibrium dissociation constant (Kd) was 14 nM.
In the case of B30 it was 17 nM.
In the case of B31 it was 17 nM; in that of B32, 20 nM; in that of B33, 18 nM.
